Data: patent US20080020978A1 (Amgen, published 2008)
Read-outs that look alike come from different tables or passages of the source. Ends that are not written are not given here.

Key:
[1] = target: T1, CGRP1 receptor (CRLR/RAMP1 complex) of human neuroblastoma SK-N-MC cells (human, UniProt Q16602 23-461; O60894 27-148); experiment: cell-based or functional assay
[2] = target: T2, rat ortholog of the CGRP1 receptor (rat, UniProt Q63118 24-464; Q9JJ74 27-148, limits assumed); experiment: cell-based or functional assay
[3] = target: T1, CGRP1 receptor (CRLR/RAMP1 complex) of …; experiment: cell-based or functional assay; remark: listed apart in the source
[4] = target: T1, CGRP1 receptor (CRLR/RAMP1 complex) of …; experiment: cell-based or functional assay; remark: listed apart in the source
[5] = target: T1, CGRP1 receptor (CRLR/RAMP1 complex) of …; experiment: 125I-hαCGRP competition, SK-N-MC membranes
[6] = target: T2, rat ortholog of the CGRP1 receptor; experiment: cell-based or functional assay; remark: listed apart in the source
[7] = target: T1, CGRP1 receptor (CRLR/RAMP1 complex) of …; experiment: cell-based or functional assay; remark: listed apart in the source

T2 sequence (Q63118 24-464 limits assumed, chain 1 of 2): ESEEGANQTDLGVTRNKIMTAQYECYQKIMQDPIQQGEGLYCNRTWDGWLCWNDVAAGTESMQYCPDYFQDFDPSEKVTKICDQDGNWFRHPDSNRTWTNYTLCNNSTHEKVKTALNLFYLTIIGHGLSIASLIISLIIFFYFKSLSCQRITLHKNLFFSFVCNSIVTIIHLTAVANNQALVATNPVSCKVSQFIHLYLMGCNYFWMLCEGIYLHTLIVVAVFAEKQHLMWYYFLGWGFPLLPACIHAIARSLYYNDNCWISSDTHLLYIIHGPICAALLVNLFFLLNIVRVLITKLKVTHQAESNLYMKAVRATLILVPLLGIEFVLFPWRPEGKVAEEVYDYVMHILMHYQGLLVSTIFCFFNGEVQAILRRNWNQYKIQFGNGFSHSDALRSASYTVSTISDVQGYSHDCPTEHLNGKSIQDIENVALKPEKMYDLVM
T2 sequence (Q9JJ74 27-148 limits assumed, chain 2 of 2): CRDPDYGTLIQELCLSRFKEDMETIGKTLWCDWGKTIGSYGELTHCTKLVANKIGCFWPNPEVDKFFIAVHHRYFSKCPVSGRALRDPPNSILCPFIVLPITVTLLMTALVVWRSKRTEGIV
T1 sequence (Q16602 23-461, chain 1 of 2): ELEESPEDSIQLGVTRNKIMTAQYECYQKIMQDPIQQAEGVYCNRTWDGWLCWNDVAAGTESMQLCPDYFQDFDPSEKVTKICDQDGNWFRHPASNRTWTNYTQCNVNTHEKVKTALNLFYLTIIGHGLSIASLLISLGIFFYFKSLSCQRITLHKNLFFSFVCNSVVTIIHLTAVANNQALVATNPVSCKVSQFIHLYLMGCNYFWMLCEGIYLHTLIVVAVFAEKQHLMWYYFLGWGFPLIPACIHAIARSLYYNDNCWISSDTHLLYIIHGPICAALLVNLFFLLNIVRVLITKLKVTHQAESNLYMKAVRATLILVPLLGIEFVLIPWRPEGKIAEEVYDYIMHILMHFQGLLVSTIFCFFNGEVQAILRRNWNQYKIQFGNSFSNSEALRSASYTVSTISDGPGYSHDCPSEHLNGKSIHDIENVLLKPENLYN
T1 sequence (O60894 27-148, chain 2 of 2): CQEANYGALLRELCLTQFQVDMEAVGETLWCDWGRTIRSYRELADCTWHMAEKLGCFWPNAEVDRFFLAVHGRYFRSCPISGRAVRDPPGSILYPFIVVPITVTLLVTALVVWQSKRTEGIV

in vitro IC50 (rat ortholog; nM) [2] | IC50 [3] | IC50 [4] | Ki [5] | Binder | further results
6.4 nM | – | – | – | Ac-WVTHRLAGLLSRSGGVVRK(20 kDa MeO‑PEG)NFVPTDVGPFAF-NH2 [SEQ ID NO 809] | IC50 [1]: 0.32 nM
5.4 nM | – | – | – | Ac-WVTHRLAGLLSRSGGVVRKNFVPTDVGPFAF-NH2 [SEQ ID NO 808] | –
– | 0.51 nM | 0.51 nM | – | Ac-WVTHRLAGLLSRSGGVKRNNFVPTDVGPFAF-NH2 [SEQ ID NO 11] | –
– | 0.36 nM | 0.36 nM | – | Ac-WVTHRLAGLLSRSGGVCRNNFVPTDVGPFAF-NH2 [SEQ ID NO 10] | –
131 nM | – | – | 1.83 nM | WVTHXLAGLLSXSGGVVRKNFVPTDVGPFAF (Ac-WVTH[Cit]LAGLLS[Cit]SGG VVRK^(20 kDa MeO-PEG)NFVPTDVGPFAF-amide) [SEQ ID NO 791] | IC50 [1]: 3.74 nM; fold loss of potency against SEQ ID NO:31 [6]: ~9 fold
49.5 nM | – | – | 0.84 nM | WVTHXLAGLLSXSGGVVXKNFVPTDVGPXAF (Ac-WVTH[Cit]LAGLLS[Cit]SGGVV[hArg]K(20 KPEGald)NFVPTDVGP[1-Nal]AF-NH2) [SEQ ID NO 173] | –
8.9 nM | – | – | 0.53 nM | WVTHXLAGLLSXSGGVVXKNFVPTDVGPFAF (Ac-WVTH[Cit]LAGLLS[Cit]SGGVV[hArg]KNFVPTDVGPFAF-NH2) [SEQ ID NO 739] | –
– | 0.72 nM | 0.72 nM | – | CGGGGGGGVTHRLAGLLSRSGGVVKNNFVPTDVGPFAF-NH2 [SEQ ID NO 3] | fold change in potency against SEQ ID NO:1 [7]: > 6 fold
– | 0.5 nM | 0.5 nM | – | Ac-WVTHRLAGLLSRSGGVVRCNFVPTDVGPFAF-NH2 [SEQ ID NO 8] | fold change in potency against SEQ ID NO:9 [7]: > 4 fold
